Reference: the supplement of paper PMC10567573

B1: PCDHGA10 (parent)
chain: FHELQMQVTASDSGDPPLSSNVSL

Variants of: B1
Assay: protein stability index of a GFP-peptide fusion (GPS, HEK-293T) (PSI 1-6); higher = more stable
Settings: c terminus: a fixed tail appended
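Note: lentivirally expressed fusions sorted by FACS into six bins by GFP to DsRed ratio, PSI derived from sequencing read proportions per bin multiplied by bin number.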

Compared with FHELQMQVTGSDSGDPPLSSNVSL [A10G], FHELQMQVTHSDSGDPPLSSNVSL [A10H] is higher in protein stability index: 2.24 for the first, 2.51 for the second.

Going from FHELQMQVTISDSGDPPLSSNVSL [A10I] to FHELQMQVTKSDSGDPPLSSNVSL [A10K], the protein stability index rises from 2.38 to 2.41.

First: FHELQMQVTLSDSGDPPLSSNVSL [A10L]
Second: FHELQMQVTMSDSGDPPLSSNVSL [A10M]
The protein stability index of the first is lower: 1.29 for the first, 1.49 for the second.

Compared with FHELQMQVTNSDSGDPPLSSNVSL [A10N], FHELQMQVTPSDSGDPPLSSNVSL [A10P] is higher in protein stability index: 1.99 for the first, 2.88 for the second.

Compared with FHELQMQVTQSDSGDPPLSSNVSL [A10Q], FHELQMQVTRSDSGDPPLSSNVSL [A10R] is lower in protein stability index: 2.44 for the first, 1.48 for the second.

Compared with FHELQMQVTSSDSGDPPLSSNVSL [A10S], FHELQMQVTTSDSGDPPLSSNVSL [A10T] is lower in protein stability index: 2.35 for the first, 2.13 for the second.

Compared with FHELQMQVTVSDSGDPPLSSNVSL [A10V], FHELQMQVTWSDSGDPPLSSNVSL [A10W] is higher in protein stability index: 1.26 for the first, 1.86 for the second.

Compared with FHELQMQVTYSDSGDPPLSSNVSL [A10Y], FHELQMQVTAADSGDPPLSSNVSL [S11A] is higher in protein stability index: 2.02 for the first, 2.22 for the second.

First: FHELQMQVTACDSGDPPLSSNVSL [S11C]
Second: FHELQMQVTADDSGDPPLSSNVSL [S11D]
The protein stability index of the first is lower: 2.12 for the first, 2.3 for the second.

Compared with FHELQMQVTAEDSGDPPLSSNVSL [S11E], FHELQMQVTAFDSGDPPLSSNVSL [S11F] is lower in protein stability index: 2.82 for the first, 1.55 for the second.

Compared with FHELQMQVTAGDSGDPPLSSNVSL [S11G], FHELQMQVTAHDSGDPPLSSNVSL [S11H] is higher in protein stability index: 2.13 for the first, 2.16 for the second.

Going from FHELQMQVTAIDSGDPPLSSNVSL [S11I] to FHELQMQVTAKDSGDPPLSSNVSL [S11K], the protein stability index rises from 1.88 to 2.9.

First: FHELQMQVTALDSGDPPLSSNVSL [S11L]
Second: FHELQMQVTAMDSGDPPLSSNVSL [S11M]
The protein stability index of the first is higher: 2.27 for the first, 1.78 for the second.

First: FHELQMQVTANDSGDPPLSSNVSL [S11N]
Second: FHELQMQVTAPDSGDPPLSSNVSL [S11P]
The protein stability index of the first is lower: 2.03 for the first, 2.21 for the second.

First: FHELQMQVTAQDSGDPPLSSNVSL [S11Q]
Second: FHELQMQVTARDSGDPPLSSNVSL [S11R]
The protein stability index of the first is higher: 2.72 for the first, 1.96 for the second.

Going from FHELQMQVTATDSGDPPLSSNVSL [S11T] to FHELQMQVTAVDSGDPPLSSNVSL [S11V], the protein stability index falls from 2.4 to 1.93.

Going from FHELQMQVTAWDSGDPPLSSNVSL [S11W] to FHELQMQVTAYDSGDPPLSSNVSL [S11Y], the protein stability index falls from 2.59 to 1.47.

Going from FHELQMQVTASASGDPPLSSNVSL [D12A] to FHELQMQVTASCSGDPPLSSNVSL [D12C], the protein stability index rises from 1.46 to 1.98.

First: FHELQMQVTASESGDPPLSSNVSL [D12E]
Second: FHELQMQVTASFSGDPPLSSNVSL [D12F]
The protein stability index of the first is lower: 2.23 for the first, 2.47 for the second.

Compared with FHELQMQVTASGSGDPPLSSNVSL [D12G], FHELQMQVTASHSGDPPLSSNVSL [D12H] is lower in protein stability index: 2.14 for the first, 1.88 for the second.

Compared with FHELQMQVTASISGDPPLSSNVSL [D12I], FHELQMQVTASKSGDPPLSSNVSL [D12K] is higher in protein stability index: 2.07 for the first, 2.35 for the second.

Going from FHELQMQVTASLSGDPPLSSNVSL [D12L] to FHELQMQVTASMSGDPPLSSNVSL [D12M], the protein stability index rises from 1.73 to 3.

First: FHELQMQVTASNSGDPPLSSNVSL [D12N]
Second: FHELQMQVTASPSGDPPLSSNVSL [D12P]
The protein stability index of the first is higher: 2.92 for the first, 1.89 for the second.

Going from FHELQMQVTASQSGDPPLSSNVSL [D12Q] to FHELQMQVTASRSGDPPLSSNVSL [D12R], the protein stability index falls from 1.89 to 1.82.

Going from FHELQMQVTASSSGDPPLSSNVSL [D12S] to FHELQMQVTASTSGDPPLSSNVSL [D12T], the protein stability index falls from 2.15 to 1.86.

Going from FHELQMQVTASVSGDPPLSSNVSL [D12V] to FHELQMQVTASWSGDPPLSSNVSL [D12W], the protein stability index rises from 1.73 to 1.81.

Going from FHELQMQVTASYSGDPPLSSNVSL [D12Y] to FHELQMQVTASDAGDPPLSSNVSL [S13A], the protein stability index falls from 2.54 to 1.82.

Compared with FHELQMQVTASDCGDPPLSSNVSL [S13C], FHELQMQVTASDDGDPPLSSNVSL [S13D] is higher in protein stability index: 2.43 for the first, 2.53 for the second.

Compared with FHELQMQVTASDEGDPPLSSNVSL [S13E], FHELQMQVTASDFGDPPLSSNVSL [S13F] is lower in protein stability index: 2.69 for the first, 1.52 for the second.

First: FHELQMQVTASDGGDPPLSSNVSL [S13G]
Second: FHELQMQVTASDHGDPPLSSNVSL [S13H]
The protein stability index of the first is higher: 2.33 for the first, 2.1 for the second.

Going from FHELQMQVTASDIGDPPLSSNVSL [S13I] to FHELQMQVTASDKGDPPLSSNVSL [S13K], the protein stability index rises from 1.66 to 2.01.

First: FHELQMQVTASDLGDPPLSSNVSL [S13L]
Second: FHELQMQVTASDMGDPPLSSNVSL [S13M]
The protein stability index of the first is higher: 2.13 for the first, 2.08 for the second.

First: FHELQMQVTASDNGDPPLSSNVSL [S13N]
Second: FHELQMQVTASDPGDPPLSSNVSL [S13P]
The protein stability index of the first is higher: 2.43 for the first, 1.71 for the second.

Going from FHELQMQVTASDQGDPPLSSNVSL [S13Q] to FHELQMQVTASDRGDPPLSSNVSL [S13R], the protein stability index falls from 2.15 to 2.12.

First: FHELQMQVTASDTGDPPLSSNVSL [S13T]
Second: FHELQMQVTASDVGDPPLSSNVSL [S13V]
The protein stability index of the first is higher: 1.75 for the first, 1.67 for the second.

First: FHELQMQVTASDWGDPPLSSNVSL [S13W]
Second: FHELQMQVTASDYGDPPLSSNVSL [S13Y]
The protein stability index of the first is lower: 1.6 for the first, 1.88 for the second.

First: FHELQMQVTASDSADPPLSSNVSL [G14A]
Second: FHELQMQVTASDSCDPPLSSNVSL [G14C]
The protein stability index of the first is lower: 2.33 for the first, 2.44 for the second.

Compared with FHELQMQVTASDSDDPPLSSNVSL [G14D], FHELQMQVTASDSEDPPLSSNVSL [G14E] is higher in protein stability index: 2.6 for the first, 2.98 for the second.

Compared with FHELQMQVTASDSFDPPLSSNVSL [G14F], FHELQMQVTASDSHDPPLSSNVSL [G14H] is higher in protein stability index: 1.82 for the first, 2.54 for the second.

Going from FHELQMQVTASDSIDPPLSSNVSL [G14I] to FHELQMQVTASDSKDPPLSSNVSL [G14K], the protein stability index rises from 2.12 to 2.31.

First: FHELQMQVTASDSLDPPLSSNVSL [G14L]
Second: FHELQMQVTASDSMDPPLSSNVSL [G14M]
The protein stability index of the first is higher: 2.11 for the first, 2.09 for the second.

Going from FHELQMQVTASDSNDPPLSSNVSL [G14N] to FHELQMQVTASDSPDPPLSSNVSL [G14P], the protein stability index rises from 2.27 to 3.16.

First: FHELQMQVTASDSQDPPLSSNVSL [G14Q]
Second: FHELQMQVTASDSRDPPLSSNVSL [G14R]
The protein stability index of the first is lower: 1.62 for the first, 2.21 for the second.

Compared with FHELQMQVTASDSSDPPLSSNVSL [G14S], FHELQMQVTASDSTDPPLSSNVSL [G14T] is lower in protein stability index: 2.34 for the first, 2.31 for the second.

Going from FHELQMQVTASDSVDPPLSSNVSL [G14V] to FHELQMQVTASDSWDPPLSSNVSL [G14W], the protein stability index falls from 2.59 to 2.11.

First: FHELQMQVTASDSYDPPLSSNVSL [G14Y]
Second: FHELQMQVTASDSGAPPLSSNVSL [D15A]
The protein stability index of the first is lower: 1.94 for the first, 2.08 for the second.

Compared with FHELQMQVTASDSGCPPLSSNVSL [D15C], FHELQMQVTASDSGEPPLSSNVSL [D15E] is higher in protein stability index: 1.79 for the first, 1.98 for the second.
